Experimental findings from patent US20030186334A1, “KTS-disintegrins” (Temple University - Of the Commonwealth System of Higher …, priority 2001, published 2003) are described below.

In test [1] the test system is human melanoma cells (MV3). Briefly: apoptosis by caspase-3 levels in melanoma MV3 cells. Type of test: cell-based. The protocol:
(§1) The mechanisms of the cancer-suppressing effect observed for obtustatin were investigated as follows. Dermal microvascular endothelial cells (EC) and human melanoma cells (MV3) were cultured and exposed to TNF-α, vincristine and obtustatin. (TNF-α and vincristine are compounds which induce cell death by apoptosis in both normal and cancerous cells.) Control cells received only vehicle. The extent of apoptosis was measured by determining caspase-3 levels.

Test [2] has as its target T1, α1β1 integrin (Homo sapiens, UniProt P05556+P56199).
T1 construct: expressed in transfected cells; host or cells: α1K562 cells
Kind of test: adhesion of HS.939T cells to collagen IV. Format: cell-based. As to conditions: α1β1, Coll IV.

For test [3], the system named is Lewis lung carcinoma. Briefly: Lewis lung carcinoma growth in syngeneic mouse model. Format: in vivo, C57BL/6 mice. The note with it: 5 mg/kg intraperitoneally once daily for eight days. The protocol:
Lewis lung carcinoma cells (1×10^6) were injected under the skin of the C57BL/6 mice (Tacoma Inc., Germantown, N.Y.), and tumors were allowed to grow for one week. The average tumor size after one week of growth was approximately 0.08 cm^3. The one-week time-point was called “day 0.” Two treatment groups of four mice each were injected intraperitoneally once daily with either 5 mg/kg obtustatin or 5 mg/kg echistatin beginning on day 0 for a total of eight days. A control group of four mice received only PBS. Tumor volume was measured daily using the formula length×width^2×0.52.

Test [4] relates to dermal microvascular endothelial cells (EC). Briefly: apoptosis by caspase-3 levels in dermal microvascular endothelial cells. Type of test: cell-based. Here is the method: as §1
The target of test [5] is T2, αIIbβ3 integrin (Homo sapiens, UniProt P05106+P08514).
T2 construct: expressed in transfected cells; host or cells: A5 cells
Briefly: adhesion of A5 cells to fibrinogen. Type of test: cell-based. The protocol:
(§2) Adhesive ligands for the selected integrins consisted of collagen IV (0.2 μg/well), collagen I, fibronectin, or vascular cell adhesion molecule-1 (VCAM-1). Adhesive ligands in 0.02 M acetic acid were immobilized overnight at 4° C. on a 96-well plate. Plates were then blocked with 1% (w/v) BSA (bovine serum albumin) in Hank's Balanced Salt Solution (HBSS) containing 3 mM Mg^2+ at room temperature for 1-2 hours to prevent cells from non-specifically binding to the plates. α1K562, α2K562, K562, A5, and Jurkat cells expressing the α1β1, α2β1, α5β1, αIIbβ3, and α4β1 integrins respectively were labeled by incubation with 12.5 μM 5-chloromethylfluorescein diacetate (CMFDA) in HBSS for 15 minutes at 37° C. CMFDA labeled cells were then pelleted, washed and resuspended in HBSS buffer containing 3 mM Mg^2+ and 1% (w/v) BSA. […] Plates were then incubated at 37° C. for 30 minutes as indicated in Table 5 and washed three times with HBSS containing 3 mM Mg^2+ and 1% (w/v) BSA to remove unbound cells. Bound cells were lysed using 0.5% (v/v) Triton X-100 in H2O. Fluorescent CMFDA released by lysis of adherent cells in a given well was read using a Cytofluor 2350 fluorescence plate reader.
(§3) The effect of obtustatin, viperisrastatin, echistatin, and eristostatin on the binding of selected integrins to their adhesive ligands was evaluated using the cell adhesion assay described in Example 6. The integrin-expressing cells, integrins and corresponding adhesive ligands, and the results of the cell adhesion assay are shown in Table 6.

The target of test [6] is α2β1 integrin (Homo sapiens, UniProt P05556+P17301). Kind of test: adhesion of AJH10 blocked MV3 cells to immobilized collagen IV. Format: cell-based. On the set-up: endogenous in cells; host or cells: MV3 human melanoma cells. As to conditions: adhesion via α2β1. The protocol: (§4) The α1β1 integrin specific inhibitory effect of obtustatin was confirmed using human melanoma MV3 cells. MV3 cells express both the α1β1 and α2β1 integrins. MV3 cells adhere strongly to collagen IV through α1β1 and α2β1 integrin-mediated interactions.
(§5) Collagen IV (0.2 μg/well) in 0.02 M acetic acid was immobilized overnight at 4° C. on a 96-well plate. Plates were then blocked with 1% (w/v) BSA (bovine serum albumin) in Hank's Balanced Salt Solution (HBSS) containing 3 mM Mg^2+ at room temperature for 1-2 hours to prevent cells from non-specifically binding to the plates. α1K562 cells were labeled by incubation with 12.5 μM 5-chloromethylfluorescein diacetete (CMFDA) in HBSS for 15 minutes at 37° C. CMFDA labeled MV3 cells were then pelleted, washed and resuspended in HBSS buffer containing 3mM Mg^2+ and 1% (w/v) BSA. 1×10^5 cells were then added to each well in the presence (10 μg/ml) or absence of the α1 integrin subunit specific AJH10 mAb and α2 integrin subunit specific P1E6 mAb as indicated in FIG. 5. Obtustatin was added at the concentrations indicated in FIG. 5 simultaneously with the mAbs. The plates were then incubated at 37° C. for 30 minutes and washed three times with HBSS containing 3 mM Mg^2+ and 1% (w/v) BSA to remove unbound cells. […] Fluorescent CMFDA released by lysis of adherent cells in a given well was read using a Cytofluor 2350 fluorescence plate reader.

The target in test [7] is T3, αvβ3 integrin (Homo sapiens, UniProt P05106+P06756).
T3 construct: endogenous in cells; host or cells: JY cells
T3 sequence (P06756 31-889 limits assumed): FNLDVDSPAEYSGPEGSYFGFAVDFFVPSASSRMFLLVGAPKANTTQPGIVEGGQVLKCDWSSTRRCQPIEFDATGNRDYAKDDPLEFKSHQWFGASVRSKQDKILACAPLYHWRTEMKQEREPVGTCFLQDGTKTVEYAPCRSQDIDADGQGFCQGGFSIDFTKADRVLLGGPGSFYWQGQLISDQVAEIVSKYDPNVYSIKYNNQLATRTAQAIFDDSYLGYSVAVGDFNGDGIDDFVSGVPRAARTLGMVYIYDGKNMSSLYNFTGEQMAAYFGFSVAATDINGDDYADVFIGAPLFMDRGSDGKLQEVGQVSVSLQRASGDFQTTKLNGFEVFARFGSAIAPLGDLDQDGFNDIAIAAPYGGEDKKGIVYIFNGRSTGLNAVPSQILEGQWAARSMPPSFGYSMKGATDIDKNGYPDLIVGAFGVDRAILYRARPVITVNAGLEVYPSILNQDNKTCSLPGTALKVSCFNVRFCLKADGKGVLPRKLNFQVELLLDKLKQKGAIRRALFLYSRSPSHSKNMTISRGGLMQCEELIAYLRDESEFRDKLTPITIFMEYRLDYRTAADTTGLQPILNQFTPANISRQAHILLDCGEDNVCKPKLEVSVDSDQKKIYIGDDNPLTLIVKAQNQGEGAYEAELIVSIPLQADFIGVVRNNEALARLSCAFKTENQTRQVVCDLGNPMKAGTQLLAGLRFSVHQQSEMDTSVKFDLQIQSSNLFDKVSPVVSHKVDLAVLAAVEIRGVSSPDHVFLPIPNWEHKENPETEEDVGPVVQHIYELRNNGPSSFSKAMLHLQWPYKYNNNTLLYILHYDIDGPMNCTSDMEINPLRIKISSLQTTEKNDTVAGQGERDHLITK
T3 sequence (P06756 891-1048 partner limits assumed): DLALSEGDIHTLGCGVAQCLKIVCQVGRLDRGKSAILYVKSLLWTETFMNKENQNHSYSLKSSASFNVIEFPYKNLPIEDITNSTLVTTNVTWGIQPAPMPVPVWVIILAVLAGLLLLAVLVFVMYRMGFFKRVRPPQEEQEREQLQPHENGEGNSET
T3 sequence (P05106 27-788): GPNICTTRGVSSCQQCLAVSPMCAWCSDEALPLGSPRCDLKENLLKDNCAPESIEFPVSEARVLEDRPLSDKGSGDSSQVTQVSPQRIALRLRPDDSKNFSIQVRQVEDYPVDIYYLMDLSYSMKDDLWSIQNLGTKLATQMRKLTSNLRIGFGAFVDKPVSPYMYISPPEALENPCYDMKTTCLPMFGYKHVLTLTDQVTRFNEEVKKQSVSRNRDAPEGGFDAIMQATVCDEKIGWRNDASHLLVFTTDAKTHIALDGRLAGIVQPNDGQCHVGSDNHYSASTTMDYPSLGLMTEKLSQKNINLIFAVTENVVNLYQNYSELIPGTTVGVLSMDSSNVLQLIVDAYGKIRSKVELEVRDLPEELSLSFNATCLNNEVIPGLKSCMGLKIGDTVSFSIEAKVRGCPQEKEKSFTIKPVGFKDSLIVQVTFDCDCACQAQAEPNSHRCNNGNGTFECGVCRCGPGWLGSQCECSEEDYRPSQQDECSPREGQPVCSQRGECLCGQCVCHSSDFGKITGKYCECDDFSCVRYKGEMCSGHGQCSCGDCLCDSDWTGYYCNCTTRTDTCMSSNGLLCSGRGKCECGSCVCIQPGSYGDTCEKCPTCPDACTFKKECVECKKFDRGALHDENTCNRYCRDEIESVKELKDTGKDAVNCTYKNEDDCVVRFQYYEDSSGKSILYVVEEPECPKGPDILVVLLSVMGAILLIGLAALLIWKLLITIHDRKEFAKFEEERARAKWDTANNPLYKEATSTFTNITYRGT
Kind of test: adhesion of JY cells to vitronectin. Format: cell-based. The note with it: αvβ3, VN.

Test [8] deals with T4, α5β1 integrin (Homo sapiens, UniProt P05556+P08648).
T4 construct: endogenous in cells; host or cells: K562 cells
T4 sequence (P08648 42-894 limits assumed): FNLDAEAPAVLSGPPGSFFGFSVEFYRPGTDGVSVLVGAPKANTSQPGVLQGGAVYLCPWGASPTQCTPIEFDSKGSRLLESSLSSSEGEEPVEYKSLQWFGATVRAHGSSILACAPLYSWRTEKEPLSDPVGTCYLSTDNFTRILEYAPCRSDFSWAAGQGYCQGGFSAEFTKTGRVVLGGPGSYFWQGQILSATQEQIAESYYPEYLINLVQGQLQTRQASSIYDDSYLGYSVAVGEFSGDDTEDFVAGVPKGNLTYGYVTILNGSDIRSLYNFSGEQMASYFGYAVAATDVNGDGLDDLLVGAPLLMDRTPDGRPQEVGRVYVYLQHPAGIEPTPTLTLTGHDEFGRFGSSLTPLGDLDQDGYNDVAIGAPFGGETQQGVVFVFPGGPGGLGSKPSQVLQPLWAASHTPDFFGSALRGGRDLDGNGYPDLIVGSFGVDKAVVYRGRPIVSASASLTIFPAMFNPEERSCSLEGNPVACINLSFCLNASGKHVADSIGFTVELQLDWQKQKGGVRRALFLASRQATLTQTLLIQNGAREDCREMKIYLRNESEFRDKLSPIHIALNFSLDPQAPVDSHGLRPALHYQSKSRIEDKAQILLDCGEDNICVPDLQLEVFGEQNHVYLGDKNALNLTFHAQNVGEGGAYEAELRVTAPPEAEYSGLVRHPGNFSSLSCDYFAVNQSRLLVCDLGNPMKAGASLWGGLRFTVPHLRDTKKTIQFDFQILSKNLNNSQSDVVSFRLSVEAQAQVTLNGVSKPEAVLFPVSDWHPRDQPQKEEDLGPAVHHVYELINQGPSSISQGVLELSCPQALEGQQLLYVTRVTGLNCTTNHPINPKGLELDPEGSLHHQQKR
T4 sequence (P08648 895-1049 partner limits assumed): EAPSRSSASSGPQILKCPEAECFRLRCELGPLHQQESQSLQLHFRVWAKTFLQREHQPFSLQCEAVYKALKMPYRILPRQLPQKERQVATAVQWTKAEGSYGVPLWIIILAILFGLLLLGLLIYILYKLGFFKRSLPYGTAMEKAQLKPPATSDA
T4 sequence (P05556 21-798): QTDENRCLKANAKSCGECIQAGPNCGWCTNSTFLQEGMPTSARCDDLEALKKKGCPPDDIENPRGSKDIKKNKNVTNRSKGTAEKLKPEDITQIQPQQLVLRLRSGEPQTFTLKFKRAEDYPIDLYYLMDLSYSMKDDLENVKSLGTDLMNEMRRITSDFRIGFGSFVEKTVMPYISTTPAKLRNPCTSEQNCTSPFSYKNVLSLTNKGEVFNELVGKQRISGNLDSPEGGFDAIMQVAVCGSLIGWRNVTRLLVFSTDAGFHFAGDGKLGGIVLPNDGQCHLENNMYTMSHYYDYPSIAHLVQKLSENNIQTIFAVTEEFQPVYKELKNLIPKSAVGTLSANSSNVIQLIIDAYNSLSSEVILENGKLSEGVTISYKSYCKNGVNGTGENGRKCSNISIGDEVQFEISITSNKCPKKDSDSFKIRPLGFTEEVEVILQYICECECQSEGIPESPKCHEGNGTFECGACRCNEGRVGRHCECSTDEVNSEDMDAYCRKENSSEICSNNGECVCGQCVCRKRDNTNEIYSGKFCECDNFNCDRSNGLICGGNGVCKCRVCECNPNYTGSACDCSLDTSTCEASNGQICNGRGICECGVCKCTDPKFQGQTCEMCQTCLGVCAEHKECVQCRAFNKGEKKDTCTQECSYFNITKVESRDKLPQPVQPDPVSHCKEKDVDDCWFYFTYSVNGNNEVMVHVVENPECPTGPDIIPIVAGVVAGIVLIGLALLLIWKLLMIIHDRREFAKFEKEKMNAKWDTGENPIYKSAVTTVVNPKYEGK
Briefly: adhesion of K562 cells to fibronectin. Type of test: cell-based. The protocol:
as §2, §3

In test [9] the test system is melanoma cells (HS.939T). Kind of test: BrdU incorporation growth assay in HS.939T melanoma cells. The note with it: 2 μM. Type of test: cell-based, human. Here is the method: Human microvascular endothelial cells (HMVECs) and melanoma cells (HS.939T) were cultured and treated with vehicle (control), 2 μM obtustatin, 2 μM echistatin or 50 ng/ml TNF-α. Growth of the cells was determined by a standard BrdU incorporation assay (Chemicon), according to the manufacturer's instructions.
In general terms: Uptake of a labelled nucleoside into DNA is a usual measure of proliferation.

Test [10] has as its system α1β1 and α2β1 integrins. Kind of test: adhesion of unblocked MV3 cells to immobilized collagen IV. Format: cell-based, human. The protocol:
as §4
as §5, with “reader. […]” for “reader.”

Test [11] has as its target T5, α4β1 integrin (Homo sapiens, UniProt P05556+P13612).
T5 construct: endogenous in cells; host or cells: Jurkat cells
Kind of test: adhesion of Jurkat cells to VCAM-1. Format: cell-based. As to conditions: α4β1, VCAM-1. Here is the method: as §2, §3

The target in test [12] is T1, α1β1 integrin. Kind of test: adhesion of P1E6 blocked MV3 cells to immobilized collagen IV. Format: cell-based. The note with it: only α1β1 mediates adhesion. Here is the method:
as §4, §5

T1 sequence (P56199 29-1179): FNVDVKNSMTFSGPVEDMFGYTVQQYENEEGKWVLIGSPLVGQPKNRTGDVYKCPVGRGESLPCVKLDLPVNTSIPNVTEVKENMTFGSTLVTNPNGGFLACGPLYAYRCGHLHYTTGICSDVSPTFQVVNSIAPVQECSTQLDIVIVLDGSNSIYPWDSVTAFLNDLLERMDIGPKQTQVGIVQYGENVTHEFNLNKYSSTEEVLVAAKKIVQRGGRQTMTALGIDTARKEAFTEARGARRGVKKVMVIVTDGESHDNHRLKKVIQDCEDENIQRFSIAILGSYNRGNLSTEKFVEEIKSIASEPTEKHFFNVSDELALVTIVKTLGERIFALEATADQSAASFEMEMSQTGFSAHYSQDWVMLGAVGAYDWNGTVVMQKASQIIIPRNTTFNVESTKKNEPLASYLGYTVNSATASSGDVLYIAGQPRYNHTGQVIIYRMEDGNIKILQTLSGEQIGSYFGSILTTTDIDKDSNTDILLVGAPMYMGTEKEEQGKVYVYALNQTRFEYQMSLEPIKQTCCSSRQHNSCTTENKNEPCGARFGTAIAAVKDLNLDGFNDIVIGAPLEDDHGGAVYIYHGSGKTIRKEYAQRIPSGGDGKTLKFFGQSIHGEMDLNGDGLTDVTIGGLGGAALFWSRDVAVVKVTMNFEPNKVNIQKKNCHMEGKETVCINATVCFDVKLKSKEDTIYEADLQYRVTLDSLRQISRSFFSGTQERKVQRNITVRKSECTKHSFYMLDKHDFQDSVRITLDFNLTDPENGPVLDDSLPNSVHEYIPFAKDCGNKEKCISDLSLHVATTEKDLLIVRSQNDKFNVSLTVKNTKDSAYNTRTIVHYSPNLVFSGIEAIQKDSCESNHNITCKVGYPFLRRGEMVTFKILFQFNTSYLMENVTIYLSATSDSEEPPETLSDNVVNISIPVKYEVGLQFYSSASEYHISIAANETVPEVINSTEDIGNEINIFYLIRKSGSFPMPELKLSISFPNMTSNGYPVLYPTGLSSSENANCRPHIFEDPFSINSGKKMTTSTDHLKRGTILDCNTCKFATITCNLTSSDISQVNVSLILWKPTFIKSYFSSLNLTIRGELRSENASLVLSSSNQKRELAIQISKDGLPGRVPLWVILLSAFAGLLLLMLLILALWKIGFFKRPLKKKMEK
T1 sequence (P05556 21-798): as the sequence (P05556 21-798) above

As a reminder, the IC50 is the concentration that inhibits the measured activity by half. A higher IC50 goes with lower potency. Turning to “Obtustatin (CTTGPCCRQCKLKPAGTTCWKTSLTSHYCTGKSCDCPLYPG)”, the entries for the “apoptosis (caspase-3)” value in test [1] and in test [4] were “not in MV3 cells” and “induced significant apoptosis”, respectively. Further, the IC50 in test [2] was 0.0001 µM; in test [5] it was greater than 10 µM; in [7], greater than 10 µM; in test [8], greater than 10 µM; in [11] it was greater than 10 µM. Further, the “inhibition of tumor development (tumor volume)” value in test [3] is reported as “by about half”. The “inhibition of adhesion of MV3 cells to collagen IV” value in test [6] is “comparatively insensitive”; in test [10], “comparatively insensitive”; in [12], “inhibited by significantly lower obtustatin concentrations”. Besides, in test [9], the “growth (BrdU incorporation)” value is “not the HS.939T melanoma cells”.
